The record followed here is patent US20140271623A1.

This test has as its target C1q (Complement Technologies, Tyler, Tex.) (UniProt P02745). Kind of test: cell-based or functional assay.
Sequence of UniProt P02745 (P02745 23-245 limits assumed, chain 1 of 3): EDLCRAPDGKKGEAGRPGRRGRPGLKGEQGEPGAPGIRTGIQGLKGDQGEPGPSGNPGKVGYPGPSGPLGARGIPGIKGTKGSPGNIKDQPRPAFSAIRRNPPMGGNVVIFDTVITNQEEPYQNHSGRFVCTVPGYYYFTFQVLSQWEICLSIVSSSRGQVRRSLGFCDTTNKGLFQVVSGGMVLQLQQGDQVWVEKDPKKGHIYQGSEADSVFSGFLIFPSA
Sequence of UniProt P02745 (P02746 28-253 limits assumed, chain 2 of 3, further chain): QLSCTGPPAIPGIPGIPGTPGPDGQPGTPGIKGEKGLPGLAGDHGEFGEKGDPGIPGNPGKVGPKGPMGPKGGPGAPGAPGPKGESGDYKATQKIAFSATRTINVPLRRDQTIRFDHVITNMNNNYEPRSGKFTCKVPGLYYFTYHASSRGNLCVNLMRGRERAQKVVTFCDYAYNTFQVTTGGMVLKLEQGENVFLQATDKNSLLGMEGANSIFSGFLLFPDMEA
Sequence of UniProt P02745 (P02747 29-245 limits assumed, chain 3 of 3, further chain): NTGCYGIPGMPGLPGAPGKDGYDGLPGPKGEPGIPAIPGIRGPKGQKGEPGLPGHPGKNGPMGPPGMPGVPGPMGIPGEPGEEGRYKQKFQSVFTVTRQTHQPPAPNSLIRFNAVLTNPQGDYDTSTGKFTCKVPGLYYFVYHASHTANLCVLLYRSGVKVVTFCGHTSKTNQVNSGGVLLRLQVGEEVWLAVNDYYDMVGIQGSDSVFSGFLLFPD

Consider “Anti-CD38 antibody (005), collected K2 isoform (two heavy-chain C-terminal lysines per antibody)”, for which the EC50 values [µg/mL] for C1q requirement for induction of CDC of Daudi cells stood at 4.8 µg/mL.
Regarding “Anti-CD38 antibody (005), unfractionated preparation after carboxypeptidase B treatment”, the EC50 values [µg/mL] for C1q requirement for induction of CDC of Daudi cells is 0.8 µg/mL and the efficacy of C1q utilization, fold improvement by carboxypeptidase B treatment was below 2 fold.
On to “Anti-CD38 antibody (005), unfractionated preparation isolated from hybridoma supernatant”, for which the EC50 values [µg/mL] for C1q requirement for induction of CDC of Daudi cells was 1.3 µg/mL.
